In patent US5916561:

Columns and labels:
[1] = target: soluble CD44 variants containing exon v6 in normal human serum (human) (UniProt P16070); test: sandwich ELISA, coating antibody, serum 1 diluted 1:320, detection BU-52-peroxidase
[2] = target: soluble CD44 variants containing exon v6 in normal human serum (human) (UniProt P16070); test: sandwich ELISA, coating antibody, serum 1 diluted 1:160, detection BU-52-peroxidase
[3] = target: soluble CD44 variants containing exon v6 in normal human serum (human) (UniProt P16070); test: sandwich ELISA, coating antibody, serum 2 diluted 1:20, detection BU-52-peroxidase
[4] = target: soluble CD44 variants containing exon v6 in normal human serum (human) (UniProt P16070); test: sandwich ELISA, coating antibody, serum 2 diluted 1:5, detection BU-52-peroxidase
[5] = target: soluble CD44 variants containing exon v6 in normal human serum (human) (UniProt P16070); test: sandwich ELISA, coating antibody, serum 1 diluted 1:20, detection BU-52-peroxidase
[6] = target: soluble CD44 variants containing exon v6 in normal human serum (human) (UniProt P16070); test: sandwich ELISA, coating antibody, serum 1 diluted 1:80, detection BU-52-peroxidase
[7] = target: soluble CD44 variants containing exon v6 in normal human serum (human) (UniProt P16070); test: sandwich ELISA, coating antibody, serum 1 diluted 1:5, detection BU-52-peroxidase
[8] = target: soluble CD44 variants containing exon v6 in normal human serum (human) (UniProt P16070); test: sandwich ELISA, coating antibody, serum 2 diluted 1:160, detection BU-52-peroxidase
[9] = target: soluble CD44 variants containing exon v6 in normal human serum (human) (UniProt P16070); test: sandwich ELISA, coating antibody, serum 2 diluted 1:10, detection BU-52-peroxidase
[10] = target: soluble CD44 variants containing exon v6 in normal human serum (human) (UniProt P16070); test: sandwich ELISA, coating antibody, serum 1 diluted 1:40, detection BU-52-peroxidase
[11] = target: soluble CD44 variants containing exon v6 in normal human serum (human) (UniProt P16070); test: sandwich ELISA, coating antibody, serum 2 diluted 1:80, detection BU-52-peroxidase
[12] = target: soluble CD44 variants containing exon v6 in normal human serum (human) (UniProt P16070); test: sandwich ELISA, coating antibody, serum 2 diluted 1:320, detection BU-52-peroxidase
[13] = target: soluble CD44 variants containing exon v6 in normal human serum (human) (UniProt P16070); test: sandwich ELISA, coating antibody, serum 2 diluted 1:640, detection BU-52-peroxidase
[14] = target: soluble CD44 variants containing exon v6 in normal human serum (human) (UniProt P16070); test: sandwich ELISA, coating antibody, serum 1 diluted 1:10, detection BU-52-peroxidase
[15] = target: soluble CD44 variants containing exon v6 in normal human serum (human) (UniProt P16070); test: sandwich ELISA, coating antibody, serum 2 diluted 1:40, detection BU-52-peroxidase
[16] = target: soluble CD44 variants containing exon v6 in normal human serum (human) (UniProt P16070); test: sandwich ELISA, coating antibody, serum 1 diluted 1:640, detection BU-52-peroxidase
[17] = target: CD44 (variant isoforms not specified) on HT-29 cells (human) (UniProt P16070); test: 3H-labelled antibody on ethanol-fixed HT-29 cells
[18] = target: CD44 (variant isoforms not specified) on COLO 205 cells (human) (UniProt P16070); test: 3H-labelled antibody on ethanol-fixed COLO 205 cells
[19] = target: human variant CD44 (exons v3-v10) on the cell surface of CHO-CD44var cells (human) (UniProt P16070); test: 3H-labelled antibody on ethanol-fixed CHO CD44var cells
[20] = target: CD44 (variant isoforms not specified) on CaCo cells (human) (UniProt P16070); test: 3H-labelled antibody on ethanol-fixed CaCo cells
[21] = target: CD44 (variant isoforms not specified) on A431 cells (human) (UniProt P16070); test: 3H-labelled antibody on ethanol-fixed A431 cells
[22] = target: CD44 (variant isoforms not specified) on HCT-116 cells (human) (UniProt P16070); test: 3H-labelled antibody on ethanol-fixed HCT-116 cells
[23] = target: CD44 (variant isoforms not specified) on CX-1 cells (human) (UniProt P16070); test: 3H-labelled antibody on ethanol-fixed CX-1 cells
[24] = target: soluble CD44 variants containing exon v6 in normal human serum (human) (UniProt P16070); test: sandwich ELISA, serum of donor 5, calibrated on recombinant soluble CD44v3-v10; reference VFF-7
[25] = target: soluble CD44 variants containing exon v6 in normal human serum (human) (UniProt P16070); test: sandwich ELISA, serum of donor 4, calibrated on recombinant soluble CD44v3-v10; reference VFF-7
[26] = target: soluble CD44 variants containing exon v6 in normal human serum (human) (UniProt P16070); test: sandwich ELISA, serum of donor 1, calibrated on recombinant soluble CD44v3-v10; reference VFF-7
[27] = target: soluble CD44 variants containing exon v6 in normal human serum (human) (UniProt P16070); test: sandwich ELISA, serum of donor 6, calibrated on recombinant soluble CD44v3-v10; reference VFF-7
[28] = target: soluble CD44 variants containing exon v6 in normal human serum (human) (UniProt P16070); test: sandwich ELISA, serum of donor 3, calibrated on recombinant soluble CD44v3-v10; reference VFF-7
[29] = target: soluble CD44 variants containing exon v6 in normal human serum (human) (UniProt P16070); test: sandwich ELISA, serum of donor 2, calibrated on recombinant soluble CD44v3-v10; reference VFF-7
[30] = target: soluble CD44 variants containing exon v6 in normal human serum (human) (UniProt P16070); test: sandwich ELISA, sera of 6 healthy donors, calibrated on recombinant soluble CD44v3-v10; reference VFF-7

absorption (sandwich ELISA signal) (absorption at 450 nm) [1] | absorption (sandwich ELISA signal) (absorption at 450 nm) [2] | absorption (sandwich ELISA signal) (absorption at 450 nm) [3] | absorption (sandwich ELISA signal) (absorption at 450 nm) [4] | absorption (sandwich ELISA signal) (absorption at 450 nm) [5] | absorption (sandwich ELISA signal) (absorption at 450 nm) [6] | absorption (sandwich ELISA signal) (absorption at 450 nm) [7] | absorption (sandwich ELISA signal) (absorption at 450 nm) [8] | absorption (sandwich ELISA signal) (absorption at 450 nm) [9] | absorption (sandwich ELISA signal) (absorption at 450 nm) [10] | absorption (sandwich ELISA signal) (absorption at 450 nm) [11] | absorption (sandwich ELISA signal) (absorption at 450 nm) [12] | absorption (sandwich ELISA signal) (absorption at 450 nm) [13] | absorption (sandwich ELISA signal) (absorption at 450 nm) [14] | absorption (sandwich ELISA signal) (absorption at 450 nm) [15] | absorption (sandwich ELISA signal) (absorption at 450 nm) [16] | specific binding (bound antibody per 400 000 cells) [17] [fmol] | specific binding (bound antibody per 400 000 cells) [18] [fmol] | specific binding (bound antibody per 400 000 cells) [19] [fmol] | specific binding (bound antibody per 400 000 cells) [20] [fmol] | Substance | also measured
0.026 | 0.05 | 1.56 | 1.69 | 0.296 | 0.109 | 0.406 | 0.336 | 1.76 | 0.207 | 0.699 | 0.138 | 0.054 | 0.378 | 1.21 | 0.012 | – | – | – | – | antibody VFF-4 | –
0.008 | 0.03 | 0.857 | 1.28 | 0.179 | 0.062 | 0.417 | 0.061 | 1.19 | 0.072 | 0.208 | 0.014 | 0.018 | 0.289 | 0.468 | 0.007 | 0 | 0 | 33.5 | 0.03 | antibody VFF-7 | specific binding (bound antibody per 400 000 cells) [21]: 8.19 fmol; specific binding (bound antibody per 400 000 cells) [22]: 1.44 fmol; specific binding (bound antibody per 400 000 cells) [23]: 0.19 fmol
0.318 | 0.594 | 3.16 | 3.29 | 2.63 | 1.08 | 3.14 | 1.67 | 3.32 | 1.78 | 2.54 | 0.988 | 0.546 | 3.06 | 3.05 | 0.159 | 26.1 | 2.88 | 46.5 | 12.6 | antibody VFF-18 | VFF-18/VFF-7 (ratio of the serum levels read by the two ELISAs) [24]: 3.67; VFF-18/VFF-7 (ratio of the serum levels read by the two ELISAs) [25]: 3.31; VFF-18/VFF-7 (ratio of the serum levels read by the two ELISAs) [26]: 4.17; specific binding (bound antibody per 400 000 cells) [21]: 38.7 fmol; specific binding (bound antibody per 400 000 cells) [22]: 20.2 fmol; VFF-18/VFF-7 (ratio of the serum levels read by the two ELISAs) [27]: 3.48; VFF-18/VFF-7 (ratio of the serum levels read by the two ELISAs) [28]: 3.91; VFF-18/VFF-7 (ratio of the serum levels read by the two ELISAs) [29]: 2.66; specific binding (bound antibody per 400 000 cells) [23]: 9.48 fmol; VFF-18/VFF-7 (mean value of the ratio over 6 donors) [30]: 3.53
